The target of this experiment is Lucilia sericata larval excretions/secretions (ES), Batch B: proteinase activities within ES. In words: cell-based or functional assay.

The substance “soybean trypsin inhibitor (STI) immobilized on cross-linked 4% beaded agarose (from UniProt P01070 25-205)” had a residual activity of STI-treated ES against H-Leu-AMC without further inhibitor (FIG. 10A), compared with untreated ES (percent of untreated ES) of 25.7; a residual activity of STI-treated ES against H-Leu-AMC, percentage of untreated ES (percent of untreated ES) of 28.4; a residual activity of STI-treated ES against Tosyl-Gly-Pro-Arg-AMC-HCl, percentage of untreated ES (percent of untreated ES) of 0.5; a residual activity of STI-treated ES against Z-Phe-Arg-AMC-HCl, percentage of untreated ES (percent of untreated ES) of 1.8.

Values taken from patent publication US20110280858A1.
